# Results published in publication doi:10.1101/2025.01.11.632576 (bioRxiv, 2025).
# Molecular target: HER2 VHH (2Rs15d) I29D
# Test: SPR
row,Kd,Molecule
1,3.1 nM,recombinant human HER2 (AA 23-653) (from UniProt P04626 23-653) (domain or fragment)

# Molecular target: HER2 VHH (2Rs15d) L102A
# Test: SPR
row,Kd,Molecule
1,3.1 nM,recombinant human HER2 (AA 23-653) (from UniProt P04626 23-653) (domain or fragment)

# Molecular target: HER2 VHH (2Rs15d) L102S
# Test: SPR
row,Kd,Molecule
1,3.6 nM,recombinant human HER2 (AA 23-653) (from UniProt P04626 23-653) (domain or fragment)

# Molecular target: recombinant human HER2 (AA 23-653) (Homo sapiens, UniProt P04626)
# Test: SPR
Molecule,binding result,Kd
HER2 VHH (2Rs15d) G54D (VHH) VHH: QVQLQESGGGSVQAGGSLKLTCAASGYIFNSCGMGWYRQSPGRERELVSRISDDGDTWHKESVKGRFTISQDNVKKTLYLQMNSLKPEDTAVYFCAVCYNLETYWGQGTQVTVSS,binds,–
HER2 VHH (2Rs15d) Y28A (VHH) VHH: QVQLQESGGGSVQAGGSLKLTCAASGAIFNSCGMGWYRQSPGRERELVSRISGDGDTWHKESVKGRFTISQDNVKKTLYLQMNSLKPEDTAVYFCAVCYNLETYWGQGTQVTVSS,binds,–
HER2 VHH (2Rs15d) N101D (VHH) VHH: QVQLQESGGGSVQAGGSLKLTCAASGYIFNSCGMGWYRQSPGRERELVSRISGDGDTWHKESVKGRFTISQDNVKKTLYLQMNSLKPEDTAVYFCAVCYDLETYWGQGTQVTVSS,binds,–
HER2 VHH (2Rs15d) S32K (VHH) VHH: QVQLQESGGGSVQAGGSLKLTCAASGYIFNKCGMGWYRQSPGRERELVSRISGDGDTWHKESVKGRFTISQDNVKKTLYLQMNSLKPEDTAVYFCAVCYNLETYWGQGTQVTVSS,–,31 nM
HER2 VHH (2Rs15d) G54A (VHH) VHH: QVQLQESGGGSVQAGGSLKLTCAASGYIFNSCGMGWYRQSPGRERELVSRISADGDTWHKESVKGRFTISQDNVKKTLYLQMNSLKPEDTAVYFCAVCYNLETYWGQGTQVTVSS,binds,–
HER2 VHH (2Rs15d) T58K (VHH) VHH: QVQLQESGGGSVQAGGSLKLTCAASGYIFNSCGMGWYRQSPGRERELVSRISGDGDKWHKESVKGRFTISQDNVKKTLYLQMNSLKPEDTAVYFCAVCYNLETYWGQGTQVTVSS,binds,–

# Results, then the molecule that gave them:
binding result,Kd,Molecule
binds,–,HER2 VHH (2Rs15d) Y28K (VHH) VHH: QVQLQESGGGSVQAGGSLKLTCAASGKIFNSCGMGWYRQSPGRERELVSRISGDGDTWHKESVKGRFTISQDNVKKTLYLQMNSLKPEDTAVYFCAVCYNLETYWGQGTQVTVSS
binds,–,HER2 VHH (2Rs15d) D55K (VHH) VHH: QVQLQESGGGSVQAGGSLKLTCAASGYIFNSCGMGWYRQSPGRERELVSRISGKGDTWHKESVKGRFTISQDNVKKTLYLQMNSLKPEDTAVYFCAVCYNLETYWGQGTQVTVSS
binds,–,HER2 VHH (2Rs15d) Y28D (VHH) VHH: QVQLQESGGGSVQAGGSLKLTCAASGDIFNSCGMGWYRQSPGRERELVSRISGDGDTWHKESVKGRFTISQDNVKKTLYLQMNSLKPEDTAVYFCAVCYNLETYWGQGTQVTVSS
binds,–,HER2 VHH (2Rs15d) T58D (VHH) VHH: QVQLQESGGGSVQAGGSLKLTCAASGYIFNSCGMGWYRQSPGRERELVSRISGDGDDWHKESVKGRFTISQDNVKKTLYLQMNSLKPEDTAVYFCAVCYNLETYWGQGTQVTVSS
binds,–,HER2 VHH (2Rs15d) T58S (VHH) VHH: QVQLQESGGGSVQAGGSLKLTCAASGYIFNSCGMGWYRQSPGRERELVSRISGDGDSWHKESVKGRFTISQDNVKKTLYLQMNSLKPEDTAVYFCAVCYNLETYWGQGTQVTVSS
binds,–,HER2 VHH (2Rs15d) G54K (VHH) VHH: QVQLQESGGGSVQAGGSLKLTCAASGYIFNSCGMGWYRQSPGRERELVSRISKDGDTWHKESVKGRFTISQDNVKKTLYLQMNSLKPEDTAVYFCAVCYNLETYWGQGTQVTVSS
binds,–,HER2 VHH (2Rs15d) G54S (VHH) VHH: QVQLQESGGGSVQAGGSLKLTCAASGYIFNSCGMGWYRQSPGRERELVSRISSDGDTWHKESVKGRFTISQDNVKKTLYLQMNSLKPEDTAVYFCAVCYNLETYWGQGTQVTVSS
binds,–,HER2 VHH (2Rs15d) T58A (VHH) VHH: QVQLQESGGGSVQAGGSLKLTCAASGYIFNSCGMGWYRQSPGRERELVSRISGDGDAWHKESVKGRFTISQDNVKKTLYLQMNSLKPEDTAVYFCAVCYNLETYWGQGTQVTVSS
binds,–,HER2 VHH (2Rs15d) Y28S (VHH) VHH: QVQLQESGGGSVQAGGSLKLTCAASGSIFNSCGMGWYRQSPGRERELVSRISGDGDTWHKESVKGRFTISQDNVKKTLYLQMNSLKPEDTAVYFCAVCYNLETYWGQGTQVTVSS
